Laboratory results: PMC6488122

Target: ERα-LBD (ligand binding domain of estrogen receptor α)
Test: other fluorescence titration; quenching of the endogenous fluorescence of ERα-LBD (0.2 μm, 600 μL) by microaddition of CTX solution; excitation 295 nm, slits 10 nm, 25°C

chlorotoxin (CTX), recombinant, cut from GST-CTX (from UniProt P45639 1-36) (peptide)
Ka: 3e+07 M⁻¹
